Where “and” joins values, the source holds several entries; their conditions need not be identical. Equal entries are not always repeated. Where two headings read alike, the source gives them in different places.
Tests used:
Assay in all cases: cryo-EM structure
[1] = molecular target: BG505 HT1 soluble Env heterotrimer (two BG505-D368R SOSIP.664 protomers, one D7324-tagged BG505 SOSIP.664 protomer) (HIV-1 (clade A, BG505))
[2] = molecular target: BG505 HT2 soluble Env heterotrimer (two BG505 SOSIP.664 protomers, one D7324-tagged BG505-D368R SOSIP.664 protomer) (HIV-1 (clade A, BG505))
[3] = molecular target: BG505 HT1 soluble Env heterotrimer (two BG505-D368R SOSIP.664 protomers, one D7324-tagged BG505 SOSIP.664 protomer) (HIV-1 (clade A, BG505)); remark: listed apart in the source
[4] = molecular target: BG505 HT2 soluble Env heterotrimer (two BG505 SOSIP.664 protomers, one D7324-tagged BG505-D368R SOSIP.664 protomer) (HIV-1 (clade A, BG505)); remark: listed apart in the source
[5] = molecular target: B41 HT2 soluble Env heterotrimer (two B41 SOSIP.664 protomers, one D7324-tagged B41-D368R SOSIP.664 protomer) (HIV-1 (clade B, B41))

Row | Substance | stoichiometry N [1] | stoichiometry N [2] | stoichiometry N [3] | stoichiometry N [4] | stoichiometry N [5]
1 | CD4 D1-D4 (domains 1-4), soluble (receptor) | 1 | 2 and 1 | 3 | 3 | –
2 | CD4 (as used in the cryo-EM complex with B41 HT2; version not stated) (from UniProt P01730 26-396) (receptor) | – | – | – | – | 2

Source: publication PMC10686819
